PMC9944328 (Nature Communications, 2023)

How the values were obtained:
[1] = biological target: human full-length SSTR2 wild-type with SmBiT at the C-terminus (human) (UniProt P30874)
[2] = biological target: SSTR2 T194^45.51H (human) (UniProt P30874)
[3] = biological target: SSTR3 N101^2.64V (human) (UniProt P32745)
[4] = biological target: human full-length SSTR3 wild-type (human) (UniProt P32745)
[5] = biological target: SSTR3 H192^45.51T (human) (UniProt P32745)
[6] = biological target: SSTR2 V103^2.64N (human) (UniProt P30874)
SSTR2 V103^2.64N (human), sequence (P30874 whole entry V103N): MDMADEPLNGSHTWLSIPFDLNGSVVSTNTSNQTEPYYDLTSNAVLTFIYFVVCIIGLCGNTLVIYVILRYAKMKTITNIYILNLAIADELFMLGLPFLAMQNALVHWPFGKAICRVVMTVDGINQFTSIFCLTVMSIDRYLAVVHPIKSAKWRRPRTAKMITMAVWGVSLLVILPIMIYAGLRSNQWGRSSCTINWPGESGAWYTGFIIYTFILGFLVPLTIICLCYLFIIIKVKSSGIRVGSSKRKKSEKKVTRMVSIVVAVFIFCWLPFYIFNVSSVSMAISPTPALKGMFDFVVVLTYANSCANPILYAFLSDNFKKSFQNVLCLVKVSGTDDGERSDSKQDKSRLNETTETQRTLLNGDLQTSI

[7] = biological target: human full-length SSTR2 T194^45.51H (human) (UniProt P30874)
human full-length SSTR2 T194^45.51H (human), sequence (P30874 whole entry T194H): as the sequence (P30874 whole entry V103N) above, with N103V, T194H counted along it

[8] = biological target: human full-length SSTR2 wild-type (human) (UniProt P30874)
human full-length SSTR2 wild-type (human), sequence (P30874 whole entry): as the sequence (P30874 whole entry V103N) above, with N103V counted along it

[9] = biological target: human full-length SSTR2 V103^2.64N (human) (UniProt P30874)
human full-length SSTR2 V103^2.64N (human), sequence (P30874 whole entry V103N): as the sequence (P30874 whole entry V103N) above

[10] = biological target: human full-length SSTR3 wild-type (human) (UniProt P32745); remark: listed apart in the source
[11] = biological target: human full-length SSTR3 N101^2.64V (human) (UniProt P32745)
human full-length SSTR3 N101^2.64V (human), sequence (P32745 whole entry): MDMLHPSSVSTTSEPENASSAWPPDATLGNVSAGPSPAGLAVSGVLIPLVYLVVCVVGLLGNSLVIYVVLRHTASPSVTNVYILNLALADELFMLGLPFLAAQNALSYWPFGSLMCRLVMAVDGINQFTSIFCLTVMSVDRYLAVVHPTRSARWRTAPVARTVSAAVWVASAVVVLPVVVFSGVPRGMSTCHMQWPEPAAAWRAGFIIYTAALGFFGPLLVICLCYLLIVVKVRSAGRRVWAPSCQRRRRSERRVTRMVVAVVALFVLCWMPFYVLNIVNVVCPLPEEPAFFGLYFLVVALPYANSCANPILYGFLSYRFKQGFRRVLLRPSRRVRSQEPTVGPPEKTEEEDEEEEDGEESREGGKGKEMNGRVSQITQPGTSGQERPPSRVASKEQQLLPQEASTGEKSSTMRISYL

[12] = biological target: human full-length SSTR3 H192^45.51T (human) (UniProt P32745)
human full-length SSTR3 H192^45.51T (human), sequence (P32745 whole entry H192T): as the sequence (P32745 whole entry) above, with H192T counted along it

[13] = biological target: human full-length SSTR2 wild-type with SmBiT at the C-terminus (human) (UniProt P30874); remark: listed apart in the source
[14] = biological target: SSTR2 I284^ECL3A (human) (UniProt P30874)
SSTR2 I284^ECL3A (human), sequence (P30874 whole entry I284A): as the sequence (P30874 whole entry V103N) above, with N103V, I284A counted along it

[15] = biological target: SSTR2 T194^45.51A (human) (UniProt P30874)
SSTR2 T194^45.51A (human), sequence (P30874 whole entry T194A): as the sequence (P30874 whole entry V103N) above, with N103V, T194A counted along it

[16] = biological target: SSTR2 P286^ECL3A (human) (UniProt P30874)
SSTR2 P286^ECL3A (human), sequence (P30874 whole entry P286A): as the sequence (P30874 whole entry V103N) above, with N103V, P286A counted along it

[17] = biological target: SSTR2 F127^3.37A (human) (UniProt P30874)
SSTR2 F127^3.37A (human), sequence (P30874 whole entry F127A): as the sequence (P30874 whole entry V103N) above, with N103V, F127A counted along it

[18] = biological target: SSTR2 I195^45.52A (human) (UniProt P30874)
SSTR2 I195^45.52A (human), sequence (P30874 whole entry I195A): as the sequence (P30874 whole entry V103N) above, with N103V, I195A counted along it

[19] = biological target: SSTR2 F208^5.38A (human) (UniProt P30874)
SSTR2 F208^5.38A (human), sequence (P30874 whole entry F208A): as the sequence (P30874 whole entry V103N) above, with N103V, F208A counted along it

[20] = biological target: SSTR2 Y205^5.35A (human) (UniProt P30874)
SSTR2 Y205^5.35A (human), sequence (P30874 whole entry Y205A): as the sequence (P30874 whole entry V103N) above, with N103V, Y205A counted along it

[21] = biological target: SSTR2 S279^6.58A (human) (UniProt P30874)
SSTR2 S279^6.58A (human), sequence (P30874 whole entry S279A): as the sequence (P30874 whole entry V103N) above, with N103V, S279A counted along it

[22] = biological target: SSTR2 Q102^2.63A (human) (UniProt P30874)
SSTR2 Q102^2.63A (human), sequence (P30874 whole entry Q102A): as the sequence (P30874 whole entry V103N) above, with Q102A, N103V counted along it

[23] = biological target: SSTR2 W188^ECL3A (human) (UniProt P30874)
SSTR2 W188^ECL3A (human), sequence (P30874 whole entry W188A): as the sequence (P30874 whole entry V103N) above, with N103V, W188A counted along it

[24] = biological target: SSTR2 L99^2.60A (human) (UniProt P30874)
SSTR2 L99^2.60A (human), sequence (P30874 whole entry L99A): as the sequence (P30874 whole entry V103N) above, with L99A, N103V counted along it

[25] = biological target: SSTR2 F294^7.35A (human) (UniProt P30874)
SSTR2 F294^7.35A (human), sequence (P30874 whole entry F294A): as the sequence (P30874 whole entry V103N) above, with N103V, F294A counted along it

[26] = biological target: SSTR2 T287^ECL3A (human) (UniProt P30874)
SSTR2 T287^ECL3A (human), sequence (P30874 whole entry T287A): as the sequence (P30874 whole entry V103N) above, with N103V, T287A counted along it

[27] = biological target: SSTR2 F272^6.51A (human) (UniProt P30874)
SSTR2 F272^6.51A (human), sequence (P30874 whole entry F272A): as the sequence (P30874 whole entry V103N) above, with N103V, F272A counted along it

[28] = biological target: SSTR2 Y302^7.43A (human) (UniProt P30874)
SSTR2 Y302^7.43A (human), sequence (P30874 whole entry Y302A): as the sequence (P30874 whole entry V103N) above, with N103V, Y302A counted along it

[29] = biological target: SSTR2 N276^6.55A (human) (UniProt P30874)
SSTR2 N276^6.55A (human), sequence (P30874 whole entry N276A): as the sequence (P30874 whole entry V103N) above, with N103V, N276A counted along it

[30] = biological target: SSTR2 S285^ECL3A (human) (UniProt P30874)
SSTR2 S285^ECL3A (human), sequence (P30874 whole entry S285A): as the sequence (P30874 whole entry V103N) above, with N103V, S285A counted along it

[31] = biological target: SSTR2 K291^7.32A (human) (UniProt P30874)
SSTR2 K291^7.32A (human), sequence (P30874 whole entry K291A): as the sequence (P30874 whole entry V103N) above, with N103V, K291A counted along it

human full-length SSTR3 wild-type (human), sequence (P32745 whole entry): as the sequence (P32745 whole entry) above
human full-length SSTR2 wild-type with SmBiT at the C-terminus (human), sequence (P30874 whole entry): as the sequence (P30874 whole entry V103N) above, with N103V counted along it
SSTR3 H192^45.51T (human), sequence (P32745 whole entry H192T): as the sequence (P32745 whole entry) above, with H192T counted along it
SSTR2 T194^45.51H (human), sequence (P30874 whole entry T194H): as the sequence (P30874 whole entry V103N) above, with N103V, T194H counted along it
SSTR3 N101^2.64V (human), sequence (P32745 whole entry): as the sequence (P32745 whole entry) above

## octreotide (peptide)
[1]
  EC50 of octreotide-induced cAMP inhibition (GloSensor, HEK293 cells expressing the receptor; Supplementary Table 5): 0.21 nM
[2]
  EC50 of octreotide-induced cAMP inhibition (GloSensor, HEK293 cells expressing the receptor; Supplementary Table 5): 18.7 nM
[3]
  EC50 of octreotide-induced cAMP inhibition (GloSensor, HEK293 cells expressing the receptor; Supplementary Table 5): 1.33 nM
[4]
  EC50 of octreotide-induced cAMP inhibition (GloSensor, HEK293 cells expressing the receptor; Supplementary Table 5): 30.1 nM
[5]
  EC50 of octreotide-induced cAMP inhibition (GloSensor, HEK293 cells expressing the receptor; Supplementary Table 5): 21 nM
[6]
  EC50 of octreotide-induced cAMP inhibition (GloSensor, HEK293 cells expressing the receptor; Supplementary Table 5): 0.23 nM
[7]
  octreotide induced cAMP inhibition (GloSensor, HEK293 cells, 1e-13 to 1e-06): EC50 of the fit T194H-1: 28.2 nM
  octreotide induced cAMP inhibition (GloSensor, HEK293 cells, 1e-13 to 1e-06): EC50 of the fit T194H-2: 28.2 nM
[8]
  octreotide induced cAMP inhibition (GloSensor, HEK293 cells, 1e-13 to 1e-06): EC50 of the fit WT-1: 0.208 nM
  octreotide induced cAMP inhibition (GloSensor, HEK293 cells, 1e-13 to 1e-06): EC50 of the fit WT-2: 0.208 nM
[9]
  octreotide induced cAMP inhibition (GloSensor, HEK293 cells, 1e-13 to 1e-06): EC50 of the fit V103N-1: 0.227 nM
  octreotide induced cAMP inhibition (GloSensor, HEK293 cells, 1e-13 to 1e-06): EC50 of the fit V103N-2: 0.227 nM
[10]
  octreotide induced cAMP inhibition (GloSensor, HEK293 cells, 1e-13 to 1e-06): EC50 of the fit WT-1 (SSTR3): 54.7 nM
  octreotide induced cAMP inhibition (GloSensor, HEK293 cells, 1e-13 to 1e-06): EC50 of the fit WT-2 (SSTR3): 30.1 nM
[11]
  octreotide induced cAMP inhibition (GloSensor, HEK293 cells, 1e-13 to 1e-06): EC50 of the fit N101V-1: 2.5 nM
  octreotide induced cAMP inhibition (GloSensor, HEK293 cells, 1e-13 to 1e-06): EC50 of the fit N101V-2: 1.33 nM
[12]
  octreotide induced cAMP inhibition (GloSensor, HEK293 cells, 1e-13 to 1e-06): EC50 of the fit H192T-1: 82.9 nM
  octreotide induced cAMP inhibition (GloSensor, HEK293 cells, 1e-13 to 1e-06): EC50 of the fit H192T-2: 21 nM
[13]
  EC50 of octreotide-induced cAMP inhibition (Gi signaling, GloSensor, HEK293 cells expressing the receptor): 0.46 nM
[14]
  EC50 of octreotide-induced cAMP inhibition (Gi signaling, GloSensor, HEK293 cells expressing the receptor): 1.91 nM
[15]
  EC50 of octreotide-induced cAMP inhibition (Gi signaling, GloSensor, HEK293 cells expressing the receptor): 48.5 nM
[16]
  EC50 of octreotide-induced cAMP inhibition (Gi signaling, GloSensor, HEK293 cells expressing the receptor): 0.62 nM
[17]
  EC50 of octreotide-induced cAMP inhibition (Gi signaling, GloSensor, HEK293 cells expressing the receptor): 1.93 nM
[18]
  EC50 of octreotide-induced cAMP inhibition (Gi signaling, GloSensor, HEK293 cells expressing the receptor): 6.58 nM
[19]
  EC50 of octreotide-induced cAMP inhibition (Gi signaling, GloSensor, HEK293 cells expressing the receptor): 6.42 nM
[20]
  EC50 of octreotide-induced cAMP inhibition (Gi signaling, GloSensor, HEK293 cells expressing the receptor): 0.92 nM
[21]
  EC50 of octreotide-induced cAMP inhibition (Gi signaling, GloSensor, HEK293 cells expressing the receptor): 1.17 nM
[22]
  EC50 of octreotide-induced cAMP inhibition (Gi signaling, GloSensor, HEK293 cells expressing the receptor): 66.8 nM
[23]
  EC50 of octreotide-induced cAMP inhibition (Gi signaling, GloSensor, HEK293 cells expressing the receptor): 0.32 nM
[24]
  EC50 of octreotide-induced cAMP inhibition (Gi signaling, GloSensor, HEK293 cells expressing the receptor): 1.25 nM
[25]
  EC50 of octreotide-induced cAMP inhibition (Gi signaling, GloSensor, HEK293 cells expressing the receptor): 190 nM
[26]
  EC50 of octreotide-induced cAMP inhibition (Gi signaling, GloSensor, HEK293 cells expressing the receptor): 0.6 nM
[27]
  EC50 of octreotide-induced cAMP inhibition (Gi signaling, GloSensor, HEK293 cells expressing the receptor): 322 nM
[28]
  EC50 of octreotide-induced cAMP inhibition (Gi signaling, GloSensor, HEK293 cells expressing the receptor): 79 nM
[29]
  EC50 of octreotide-induced cAMP inhibition (Gi signaling, GloSensor, HEK293 cells expressing the receptor): 35.1 nM
[30]
  EC50 of octreotide-induced cAMP inhibition (Gi signaling, GloSensor, HEK293 cells expressing the receptor): 0.69 nM
[31]
  EC50 of octreotide-induced cAMP inhibition (Gi signaling, GloSensor, HEK293 cells expressing the receptor): 5.46 nM
